The values below come from patent US20230212268A1 (UNM RAINFOREST INNOVATIONS, published 2023).

Several values for one entry are separate records, joined by “and”; a condition that tells them apart may be missing. Identical values can stand only once. Some results are limits rather than exact numbers.

By EC50 is commonly meant the concentration needed to bring the measured effect to its halfway point.

In assay [1] the target is T1, recombinant SUDV glycoprotein (SUDV (Sudan ebolavirus), UniProt Q7T9D9 33-650).
T1 sequence: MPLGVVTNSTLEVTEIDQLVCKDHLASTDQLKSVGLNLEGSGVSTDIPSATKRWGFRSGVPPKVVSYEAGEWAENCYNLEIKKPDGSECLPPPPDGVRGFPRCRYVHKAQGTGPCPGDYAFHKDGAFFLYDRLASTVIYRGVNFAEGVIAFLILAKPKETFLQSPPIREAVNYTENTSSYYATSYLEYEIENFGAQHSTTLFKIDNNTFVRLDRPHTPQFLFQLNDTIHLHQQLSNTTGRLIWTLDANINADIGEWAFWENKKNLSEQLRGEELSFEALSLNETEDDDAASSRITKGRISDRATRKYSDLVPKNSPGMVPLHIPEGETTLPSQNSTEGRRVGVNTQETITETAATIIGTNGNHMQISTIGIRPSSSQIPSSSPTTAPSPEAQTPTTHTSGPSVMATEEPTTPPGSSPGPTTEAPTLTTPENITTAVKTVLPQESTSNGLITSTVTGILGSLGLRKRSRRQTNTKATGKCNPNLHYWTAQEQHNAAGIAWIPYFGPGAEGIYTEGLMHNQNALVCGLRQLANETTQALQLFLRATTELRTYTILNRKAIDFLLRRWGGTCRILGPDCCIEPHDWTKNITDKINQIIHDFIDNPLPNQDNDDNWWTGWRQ
Briefly: maximal binding from ELISA dose-response fit. On the technique in general: In an ELISA, binding on a coated surface is turned into a signal by an enzyme label.

Assay [2] concerns the target T2, recombinant MARV glycoprotein (MARV (marburgvirus, Ravn), UniProt Q1PDC7 19-648).
T2 sequence: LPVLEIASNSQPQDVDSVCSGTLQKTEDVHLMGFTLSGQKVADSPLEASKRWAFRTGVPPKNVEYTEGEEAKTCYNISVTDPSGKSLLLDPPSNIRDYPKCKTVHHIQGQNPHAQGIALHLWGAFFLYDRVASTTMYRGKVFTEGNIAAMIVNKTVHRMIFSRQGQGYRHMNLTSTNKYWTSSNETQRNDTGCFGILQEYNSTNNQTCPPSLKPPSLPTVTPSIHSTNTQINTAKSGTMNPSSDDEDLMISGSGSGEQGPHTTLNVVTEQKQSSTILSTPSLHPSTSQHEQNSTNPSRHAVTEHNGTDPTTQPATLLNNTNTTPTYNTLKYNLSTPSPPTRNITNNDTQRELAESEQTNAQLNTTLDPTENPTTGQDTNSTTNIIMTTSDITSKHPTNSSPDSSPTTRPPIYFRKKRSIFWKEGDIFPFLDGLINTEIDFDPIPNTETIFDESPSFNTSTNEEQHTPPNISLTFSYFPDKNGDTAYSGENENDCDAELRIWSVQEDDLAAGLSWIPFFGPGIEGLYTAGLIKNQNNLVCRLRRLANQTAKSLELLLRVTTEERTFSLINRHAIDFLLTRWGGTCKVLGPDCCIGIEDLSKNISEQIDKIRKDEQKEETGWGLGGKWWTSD
As to the kind of experiment: maximal binding from ELISA dose-response fit.

Assay [3] addresses T3, recombinant RESTV glycoprotein (RESTV (Reston ebolavirus), UniProt Q66799 34-651).
T3 sequence: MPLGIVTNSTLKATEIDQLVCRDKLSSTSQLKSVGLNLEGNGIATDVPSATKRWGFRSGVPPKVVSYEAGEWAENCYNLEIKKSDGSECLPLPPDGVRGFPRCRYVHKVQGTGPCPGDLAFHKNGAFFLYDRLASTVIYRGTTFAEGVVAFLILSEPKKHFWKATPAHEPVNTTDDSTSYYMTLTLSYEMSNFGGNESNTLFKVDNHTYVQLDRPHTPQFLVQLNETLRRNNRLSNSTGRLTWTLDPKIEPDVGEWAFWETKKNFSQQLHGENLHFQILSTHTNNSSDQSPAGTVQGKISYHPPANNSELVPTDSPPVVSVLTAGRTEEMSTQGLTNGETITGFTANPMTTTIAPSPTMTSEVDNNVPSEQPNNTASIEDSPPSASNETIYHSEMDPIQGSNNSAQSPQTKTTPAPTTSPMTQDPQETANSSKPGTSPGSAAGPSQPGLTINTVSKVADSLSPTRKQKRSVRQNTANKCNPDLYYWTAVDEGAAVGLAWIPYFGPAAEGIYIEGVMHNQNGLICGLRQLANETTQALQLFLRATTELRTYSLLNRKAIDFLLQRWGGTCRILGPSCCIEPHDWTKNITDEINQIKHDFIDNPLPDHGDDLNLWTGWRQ
Briefly: maximal binding from ELISA dose-response fit.

Assay [4] deals with T4, recombinant EBOV glycoprotein (EBOV (Zaire ebolavirus), UniProt Q05320 33-650).
T4 sequence: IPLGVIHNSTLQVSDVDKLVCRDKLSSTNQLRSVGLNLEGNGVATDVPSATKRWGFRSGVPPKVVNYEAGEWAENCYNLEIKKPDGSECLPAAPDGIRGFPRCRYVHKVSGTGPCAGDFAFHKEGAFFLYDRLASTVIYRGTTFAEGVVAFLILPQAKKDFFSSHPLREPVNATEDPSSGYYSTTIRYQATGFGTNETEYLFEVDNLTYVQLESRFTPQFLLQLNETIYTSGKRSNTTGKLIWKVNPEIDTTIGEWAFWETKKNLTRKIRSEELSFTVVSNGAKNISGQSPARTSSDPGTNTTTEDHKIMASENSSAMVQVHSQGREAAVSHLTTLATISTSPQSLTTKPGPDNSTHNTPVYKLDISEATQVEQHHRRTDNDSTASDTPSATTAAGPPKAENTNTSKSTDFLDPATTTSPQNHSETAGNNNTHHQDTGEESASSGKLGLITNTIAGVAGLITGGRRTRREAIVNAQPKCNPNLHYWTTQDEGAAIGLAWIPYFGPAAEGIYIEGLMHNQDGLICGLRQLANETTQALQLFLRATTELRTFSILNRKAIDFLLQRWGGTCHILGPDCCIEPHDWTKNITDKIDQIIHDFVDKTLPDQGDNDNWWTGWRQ
As to the kind of experiment: maximal binding from ELISA dose-response fit.

In assay [5] the target is T3, recombinant RESTV glycoprotein. Briefly: ELISA dose response, GP coated.

B1: EbovGPscFv4-2 (scFv)
scFv: MAWSHPQFEKTGSGGAELVKSGASVKLSCTASGFNIKDDYMHWVKQRPEQGLEWIGWIDPENGDTEYASKFQGKATITADTSSNTAYLQLSSLTSEDTAVYYCTTYYYGSAWFAYWGQGTLVTVSAGGGGSGGGGSGGGGSGGGGSASLSVSVGETVTITCRASGNIHNYLAWYQQKQGKSPQLLVYNAKTLADGVPSRFSGSGSGTQYSLKINNLQPEDFGSYYCQHFWSTPYTFGGGTKLEIKRADAAPTVSIFPPSSEQLTSGGASVVCFLNNFTHCQELQQDECS
With B1, the Bmax signal in assay [1] worked out at 280000 relative absorbance units; in assay [2] it was 380000 relative absorbance units; in assay [3] it was 210000 relative absorbance units; in assay [4], 350000 relative absorbance units. Besides, the EC50 in assay [5] is < 9 µg/mL and 7.44 µg/mL.
